Test results published in the supplement of paper PMC9112550, “Optimization of the antimicrobial peptide Bac7 by deep mutational scanning” (BMC Biology, 2022).

What follows are sequences tested on Escherichia coli TOP10 (assay: shrunken log2 fold change of peptide-encoding DNA abundance (4.5 h post-induction vs induction); higher = less antimicrobial activity (less host growth inhibition)). Conditions: time post-induction: 4.5 h; library: site-saturation at positions 5, 18, 19, 20.
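Also: peptides expressed intracellularly from a pBAD plasmid library in pooled LB shake-flask culture, induced with 0.3% L-arabinose, DNA abundance read by NGS, three biological replicates, DESeq2 with apeglm shrinkage.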

| Sequence | shrunken log2 fold change |
| --- | --- |
| RRIRNRPPRLPRPRPRPQREPRP | -0.00141 |
| RRIRNRPPRLPRPRPRPQTDPRP | -0.19 |
| RRIRNRPPRLPRPRPRPQWWPRP | 0.034 |
| RRIRNRPPRLPRPRPRPRCIPRP | -0.256 |
| RRIRNRPPRLPRPRPRPRDAPRP | -0.163 |
| RRIRNRPPRLPRPRPRPREIPRP | 0.0831 |
| RRIRNRPPRLPRPRPRPRFGPRP | 0.399 |
| RRIRNRPPRLPRPRPRPRFIPRP | -0.533 |
| RRIRNRPPRLPRPRPRPRFRPRP | 0.0503 |
| RRIRNRPPRLPRPRPRPRGGPRP | 0.474 |
| RRIRNRPPRLPRPRPRPRGHPRP | 0.347 |
| RRIRNRPPRLPRPRPRPRGPPRP | 0.893 |
| RRIRNRPPRLPRPRPRPRHMPRP | -0.199 |
| RRIRNRPPRLPRPRPRPRHQPRP | -0.038 |
| RRIRNRPPRLPRPRPRPRITPRP | 0.0468 |
| RRIRNRPPRLPRPRPRPRMDPRP | -0.104 |
| RRIRNRPPRLPRPRPRPRMRPRP | 0.867 |
| RRIRNRPPRLPRPRPRPRMTPRP | 0.259 |
| RRIRNRPPRLPRPRPRPRNCPRP | -0.0144 |
| RRIRNRPPRLPRPRPRPRNDPRP | -0.304 |
| RRIRNRPPRLPRPRPRPRNSPRP | -0.0392 |
| RRIRNRPPRLPRPRPRPRPNPRP | 0.135 |

| Sequence | shrunken log2 fold change |
| --- | --- |
| RRIRNRPPRLPRPRPRPRRCPRP | 0.291 |
| RRIRNRPPRLPRPRPRPRRDPRP | -0.0239 |
| RRIRNRPPRLPRPRPRPRRLPRP | 2.6 |
| RRIRNRPPRLPRPRPRPRRQPRP | 0.227 |
| RRIRNRPPRLPRPRPRPRRWPRP | 0.701 |
| RRIRNRPPRLPRPRPRPRSDPRP | 0.0587 |
| RRIRNRPPRLPRPRPRPRSVPRP | 0.258 |
| RRIRNRPPRLPRPRPRPRVNPRP | -0.0734 |
| RRIRNRPPRLPRPRPRPRYRPRP | -0.0876 |
| RRIRNRPPRLPRPRPRPSANPRP | -0.379 |
| RRIRNRPPRLPRPRPRPSCCPRP | -0.318 |
| RRIRNRPPRLPRPRPRPSFAPRP | 0.00213 |
| RRIRNRPPRLPRPRPRPSFVPRP | -0.266 |
| RRIRNRPPRLPRPRPRPSHCPRP | -0.801 |
| RRIRNRPPRLPRPRPRPSHLPRP | -0.438 |
| RRIRNRPPRLPRPRPRPSHYPRP | -1.22 |
| RRIRNRPPRLPRPRPRPSKFPRP | -0.601 |
| RRIRNRPPRLPRPRPRPSMRPRP | 0.000173 |
| RRIRNRPPRLPRPRPRPSMTPRP | 0.0898 |
| RRIRNRPPRLPRPRPRPSNCPRP | -0.801 |
| RRIRNRPPRLPRPRPRPSNHPRP | -0.603 |
| RRIRNRPPRLPRPRPRPSPKPRP | 0.191 |

| Sequence | shrunken log2 fold change |
| --- | --- |
| RRIRNRPPRLPRPRPRPSQGPRP | -0.154 |
| RRIRNRPPRLPRPRPRPSRAPRP | 0.121 |
| RRIRNRPPRLPRPRPRPSRDPRP | -0.129 |
| RRIRNRPPRLPRPRPRPSRIPRP | -0.234 |
| RRIRNRPPRLPRPRPRPSRLPRP | 0.14 |
| RRIRNRPPRLPRPRPRPSRQPRP | 0.0744 |
| RRIRNRPPRLPRPRPRPSSPPRP | 0.0179 |
| RRIRNRPPRLPRPRPRPSTGPRP | -0.266 |
| RRIRNRPPRLPRPRPRPSVSPRP | -0.44 |
| RRIRNRPPRLPRPRPRPSYDPRP | -0.452 |
| RRIRNRPPRLPRPRPRPTAMPRP | 0.285 |
| RRIRNRPPRLPRPRPRPTCKPRP | -0.0431 |
| RRIRNRPPRLPRPRPRPTCLPRP | -0.0993 |
| RRIRNRPPRLPRPRPRPTENPRP | 0.0685 |
| RRIRNRPPRLPRPRPRPTFIPRP | -0.279 |
| RRIRNRPPRLPRPRPRPTHGPRP | -0.0213 |
| RRIRNRPPRLPRPRPRPTHKPRP | 0.322 |
| RRIRNRPPRLPRPRPRPTIMPRP | -0.0883 |
| RRIRNRPPRLPRPRPRPTKRPRP | -0.301 |
| RRIRNRPPRLPRPRPRPTNMPRP | -0.753 |
| RRIRNRPPRLPRPRPRPTPEPRP | 0.0889 |
| RRIRNRPPRLPRPRPRPTPTPRP | 0.674 |

| Sequence | shrunken log2 fold change |
| --- | --- |
| RRIRNRPPRLPRPRPRPTQGPRP | 0.331 |
| RRIRNRPPRLPRPRPRPTQHPRP | 0.0469 |
| RRIRNRPPRLPRPRPRPTSFPRP | 0.00362 |
| RRIRNRPPRLPRPRPRPTTGPRP | 0.0259 |
| RRIRNRPPRLPRPRPRPTTLPRP | -0.294 |
| RRIRNRPPRLPRPRPRPTTVPRP | -0.12 |
| RRIRNRPPRLPRPRPRPTVEPRP | 0.0287 |
| RRIRNRPPRLPRPRPRPTVFPRP | 0.0462 |
| RRIRNRPPRLPRPRPRPVAYPRP | 0.0201 |
| RRIRNRPPRLPRPRPRPVCAPRP | 0.559 |
| RRIRNRPPRLPRPRPRPVCQPRP | -0.0808 |
| RRIRNRPPRLPRPRPRPVDCPRP | -0.209 |
| RRIRNRPPRLPRPRPRPVDHPRP | -0.01 |
| RRIRNRPPRLPRPRPRPVFPPRP | -0.000239 |
| RRIRNRPPRLPRPRPRPVGMPRP | 0.23 |
| RRIRNRPPRLPRPRPRPVIIPRP | -0.0963 |
| RRIRNRPPRLPRPRPRPVIPPRP | -0.462 |
| RRIRNRPPRLPRPRPRPVIQPRP | 0.0549 |
| RRIRNRPPRLPRPRPRPVISPRP | 0.156 |
| RRIRNRPPRLPRPRPRPVIYPRP | -0.301 |
| RRIRNRPPRLPRPRPRPVKHPRP | -0.23 |
| RRIRNRPPRLPRPRPRPVLAPRP | 0.093 |

| Sequence | shrunken log2 fold change |
| --- | --- |
| RRIRNRPPRLPRPRPRPVLRPRP | 0.00524 |
| RRIRNRPPRLPRPRPRPVLWPRP | 0.00135 |
| RRIRNRPPRLPRPRPRPVNMPRP | 0.131 |
| RRIRNRPPRLPRPRPRPVQYPRP | -0.000777 |
| RRIRNRPPRLPRPRPRPVSGPRP | 0.172 |
| RRIRNRPPRLPRPRPRPVSKPRP | 0.124 |
| RRIRNRPPRLPRPRPRPVSQPRP | -0.0152 |
| RRIRNRPPRLPRPRPRPVSWPRP | 0.162 |
| RRIRNRPPRLPRPRPRPVTGPRP | -0.362 |
| RRIRNRPPRLPRPRPRPVTKPRP | 0.0334 |
| RRIRNRPPRLPRPRPRPVTQPRP | 0.0396 |
| RRIRNRPPRLPRPRPRPVTWPRP | -0.0637 |
| RRIRNRPPRLPRPRPRPVVEPRP | -0.00885 |
| RRIRNRPPRLPRPRPRPVVGPRP | 0.392 |
| RRIRNRPPRLPRPRPRPVYKPRP | -0.453 |
| RRIRNRPPRLPRPRPRPWASPRP | 0.00581 |
| RRIRNRPPRLPRPRPRPWCCPRP | 0.007 |
| RRIRNRPPRLPRPRPRPWGIPRP | -0.199 |
| RRIRNRPPRLPRPRPRPWGQPRP | 0.0191 |
| RRIRNRPPRLPRPRPRPWKIPRP | 0.089 |
| RRIRNRPPRLPRPRPRPWMHPRP | -0.228 |
